{"source": "paper PMC10625650", "about": "“The WW domain of IQGAP1 binds directly to the p110α catalytic subunit of PI 3-kinase” (The Biochemical journal, 2023)", "binders": {"B1": {"name": "GST-WW (WW domain of human IQGAP1 fused to GST) (domain or fragment, UniProt P46940 679-719, looked up)", "chain": "GDNNSKWVKHWVKGGYYYYHNLETQEGGWDEPPNFVQNSMQ", "notes": "human IQGAP1, residues 679-719 holding the WW domain (the results name the WW domain as residues 684-710); in plasmid pGEXLB; also called GST-WW fusion protein; wild-type GST-WW; source: expressed in bacteria, purified on glutathione-Sepharose; not shown: GST (Schistosoma japonicum), N-terminal, kept"}}, "target": "T1, full-length untagged human p110α (catalytic subunit of PI 3-kinase) (human, UniProt P42336 1-1068, [35S]-methionine label)", "T1 construct": "human p110α (PIK3CA), full length, untagged; also called native p110α; unaltered wild-type p110α", "T1 sequence (P42336 whole entry, the tested form may be a part)": "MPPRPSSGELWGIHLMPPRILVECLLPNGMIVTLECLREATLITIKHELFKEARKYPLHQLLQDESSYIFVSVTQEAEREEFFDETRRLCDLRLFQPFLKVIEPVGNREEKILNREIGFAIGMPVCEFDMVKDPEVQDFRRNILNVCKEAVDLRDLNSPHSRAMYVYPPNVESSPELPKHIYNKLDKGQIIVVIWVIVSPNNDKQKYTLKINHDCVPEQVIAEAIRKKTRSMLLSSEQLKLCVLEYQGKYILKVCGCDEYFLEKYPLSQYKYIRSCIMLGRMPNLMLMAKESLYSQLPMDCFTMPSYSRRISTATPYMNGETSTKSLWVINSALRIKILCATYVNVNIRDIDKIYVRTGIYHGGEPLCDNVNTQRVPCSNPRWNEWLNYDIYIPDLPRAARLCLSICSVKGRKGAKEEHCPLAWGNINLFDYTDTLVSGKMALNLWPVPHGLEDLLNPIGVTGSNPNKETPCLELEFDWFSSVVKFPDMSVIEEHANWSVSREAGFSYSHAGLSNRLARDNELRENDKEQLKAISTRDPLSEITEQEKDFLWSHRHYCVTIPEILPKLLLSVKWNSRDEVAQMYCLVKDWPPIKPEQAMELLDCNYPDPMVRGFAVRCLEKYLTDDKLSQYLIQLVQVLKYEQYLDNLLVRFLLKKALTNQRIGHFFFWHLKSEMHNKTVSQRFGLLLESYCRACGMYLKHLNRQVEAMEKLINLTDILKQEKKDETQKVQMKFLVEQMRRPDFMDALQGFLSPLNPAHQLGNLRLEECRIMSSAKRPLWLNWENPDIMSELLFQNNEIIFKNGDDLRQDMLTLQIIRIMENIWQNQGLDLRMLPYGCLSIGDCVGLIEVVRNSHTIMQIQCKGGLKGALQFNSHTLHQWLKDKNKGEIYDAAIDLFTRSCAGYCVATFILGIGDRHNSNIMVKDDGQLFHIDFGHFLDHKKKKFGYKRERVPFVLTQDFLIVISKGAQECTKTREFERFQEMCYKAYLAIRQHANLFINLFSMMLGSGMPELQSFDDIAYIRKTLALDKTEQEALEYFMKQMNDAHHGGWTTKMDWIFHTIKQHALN", "assay": "pull-down; 25 μg GST or GST fusion protein purified from bacteria, bound to glutathione-Sepharose beads; 1 pmol 35S-labelled in vitro translated protein (partially purified by ammonium sulfate precipitation); binding buffer 20 mM Tris–HCl pH 7.1, 125 mM KOAc, 0.5 mM EDTA, 1 mM DTT, 0.1% Tween20, 12.5% glycerol; sedimentation, SDS–PAGE, autoradiography or phosphorimaging; percent binding against input", "conditions": "one partner purified"}
{"binder": "B1", "values": [{"measurement": "Kd", "result": 130, "unit": "µM"}]}
